Article PMC5389562

Experiments:
mCherry-U2AF35, Q01081 [1] = molecular target: T1, mCherry-U2AF35, Q01081; assay: single-molecule photobleaching step counting (TIRF microscopy); nuclear extract in splicing conditions, no exogenous pre-mRNA, with ATP (+ATP), in the presence of ribonuclease; diluted and applied to cover slips; labeled protein spots bleaching in one or two steps; conditions: remark: other sources report otherwise
T1 chain: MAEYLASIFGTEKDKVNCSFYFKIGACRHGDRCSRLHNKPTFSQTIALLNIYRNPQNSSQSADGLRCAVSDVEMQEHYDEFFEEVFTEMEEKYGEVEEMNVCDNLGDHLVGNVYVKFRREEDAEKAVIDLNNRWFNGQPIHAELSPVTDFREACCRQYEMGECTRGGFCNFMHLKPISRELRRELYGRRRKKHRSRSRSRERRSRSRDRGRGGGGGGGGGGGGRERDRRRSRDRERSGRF

mCherry-U2AF35, Q01081 [2] = molecular target: T1, mCherry-U2AF35, Q01081; assay: single-molecule photobleaching step counting (TIRF microscopy); nuclear extract in splicing conditions, no exogenous pre-mRNA, ATP depleted (−ATP), in the presence of ribonuclease; diluted and applied to cover slips; labeled protein spots bleaching in one or two steps; conditions: remark: other sources report otherwise

molecules bleaching in 1 step (of 2 versus 1 steps), +ATP (mCherry-U2AF35, Q01081 [1]): 218 molecules
molecules bleaching in 2 steps (of 2 versus 1 steps), +ATP (mCherry-U2AF35, Q01081 [1]): 21 molecules
molecules bleaching in 1 step (of 2 versus 1 steps), −ATP (mCherry-U2AF35, Q01081 [2]): 189 molecules
molecules bleaching in 2 steps (of 2 versus 1 steps), −ATP (mCherry-U2AF35, Q01081 [2]): 33 molecules
B1: mCherry-U2AF35, Q01081 1-240 (natural protein)
chain: MAEYLASIFGTEKDKVNCSFYFKIGACRHGDRCSRLHNKPTFSQTIALLNIYRNPQNSSQSADGLRCAVSDVEMQEHYDEFFEEVFTEMEEKYGEVEEMNVCDNLGDHLVGNVYVKFRREEDAEKAVIDLNNRWFNGQPIHAELSPVTDFREACCRQYEMGECTRGGFCNFMHLKPISRELRRELYGRRRKKHRSRSRSRERRSRSRDRGRGGGGGGGGGGGGRERDRRRSRDRERSGRF
